Measured values reported in patent US20250163116A1, “NEW METHOD TO TREAT INFECTIOUS DISEASES” (INSERM (INSTITUT NATIONAL DE LA SANTÉ ET DE LA RECHERCHE …, priority 2022, published 2025).

Key:
[1] = system: HDMECs infected with Nm 2C4.3; test: Integrity of HDMEC monolayers infected with N. meningitidis (VE-cadherin at intercellular junctions, immunofluorescence); format: cell-based, human; details: uninfected HDMECs
[2] = system: HDMEC infected with N. meningitidis 2C4.3; test: Caspase-3/7 apoptosis detection in infected HDMECs (IncuCyte); format: cell-based, human; details: Caspase-3/7 reagent, real time over 9 h, 1 μg/mL
Method: FIG. 1. Exogenous ANGPTL4 exerts protective effects on dermal microvascular endothelial cells infected by N. meningitidis. A. HDMECs were infected with Nm 2C4.3 for 30 min and treated with 1 μg/mL of recombinant human ANGPTL4 for 2 h 30. Cells were fixed and stained for cellular actin, VE-cadherin and DAPI and analyzed by fluorescent microscopy. Quantifications of VE-cadherin enrichment at intercellular junctions and of intercellular spaces area were performed on 30 fields with Image J software. Kruskal-Wallis test ** P<0.001; P<0.0001. B. HDMEC were either uninfected or infected with N. meningitidis 2C4.3 for 30 min and treated with 1 μg mL−1 of recombinant human ANGPTL4, its N-terminal portion (nANGPTL4) or its C-terminal portion (cANGPTL4) for 2 h 30. Caspase-3/7 reagent was added to detect apoptosis in real time over 9 h using the IncuCyte® Live-Cell Analysis System

[3] = system: SCID mice grafted with human skin infected with Nm 2C4.3; test: Outcome of meningococcal infection in SCID mice grafted with human skin (survival, with or without antibiotics); format: in vivo
Method: A-D, SCID mice grafted with human skin were infected intravenously with Nm 2C4.3 wild-type strain (5×10^6 bacteria); 2 h after bacterial challenge, mice received recombinant human ANGPTL4 (1 μg, intravenously), cefotaxime (200 mg kg-1, intraperitoneally) alone or in combination with ANGPTL4 or vehicle as a control. 18 h following bacterial challenge, ANGPTL4 (1 μg) and cefotaxime (200 mg kg-1) were re-administered. This experiment was performed twice with n=3 or 4 mice per group, using skin from two different donors. A, A schematic representation of the protocol used in vivo. B, Bacteraemia 4, 18, 48 and 72 h post-infection (mean±s.e.m.). C, Survival curve: * P=0.0275; two-sided log-rank Mantel-Cox survival analysis. D, Thrombosis within the skin grafts at 4 h post-infection was assessed by immunofluorescence analysis and quantified as described in FIG. 8 (error bars show mean±s.e.m.; 40 vessels per mouse were analysed; n=4 mice per group; *** P<0.001; two-tailed Student's t-test.
Six-week-old CB17/Icr-Prkdcscid female mice were obtained from Janvier Labs. Human skin tissues were obtained from adult patients undergoing plastic surgery in the Service de Chirurgie Plastique et Reconstructive of the Groupe Hospitalier Saint-Joseph. […] Experimental procedures were performed as previously described in accordance with the guidelines of the Institut National de la Santé et de la Recherche Médicale and conformed to the European ethical legislation (Directive 2010/63/EU). The experimental protocol was approved by the Animal Experimentation Ethics Committee of the Université Paris Descartes (consent forms CEEA34.O.J.L.039.12 and 2018012515596498). […] A skin flap was created and a full thickness human skin graft was placed onto the wound bed. The transplants were held in place with 6-0 non-absorbable monofilament suture materials, and the flap was then sutured above the transplant. Grafted mice were infected 4-6 weeks after human skin transplantation. N. meningitidis was grown overnight at 37° C. on GCB agar plates prepared without iron and supplemented with 15 μM deferoxamine (Desferal, Novartis). Bacterial colonies were harvested and cultured in RPMI media with 1% BSA medium and 0.06 μM deferoxamine with gentle agitation to reach the exponential phase of growth. Bacteria were then resuspended in physiological saline solution. Mice were infected intravenously with 200 μl (5×10^6 bacteria) of this bacterial suspension. A 10 mg dose of human holotransferrin (R&D Systems) was administered intraperitoneally just before infection. Mice were killed at 4 h after infection. Human skin grafts were carefully collected using a sterile cutter. The tissue was washed in PBS and fixed overnight at 4° C. in 4% paraformaldehyde in phosphate buffer. After washing in phosphate buffer, the specimens were embedded in OCT medium and then frozen at −80° C. Sections of the dermis (7 μm thick) were immobilized on Superfrost Plus microscope slides and subjected to immunofluorescence analysis. Sections were incubated with the primary antibodies for 1 h in PBS/3% BSA then DAPI was added to Alexa-conjugated secondary antibodies for 1 h. After additional washing, coverslips were mounted in glycergel (Dako) and were further analysed using a slide scanner (Lamina, Perkin Elmer). Analysis of the images was performed using ImageJ software (NIH). […]
We then analysed whether ANGPTL4 could provide a beneficial effect when administered with antibiotics.

[4] = system: Src kinase and VE-cadherin phosphorylation; test: Src kinase and VE-cadherin phosphorylation in infected HDMECs; format: cell-based, human; details: added 30 min after initiation of infection
Source text: In contrast to brain microvascular endothelial cells that resist to meningococcal infection, the integrity of dermal microvascular endothelial cell (HDMECs) monolayer was massively impaired upon infection, as observed with the loss of adherens junctions and cell detachment (data not shown). Since HDMEC poorly produces ANGPTL4 as compared to HBMEC (data not shown), we analysed whether the addition of recombinant human ANGPTL4 might exert a protective effect on these cells. […] Additionally, while infection was accompanied by the massive release of inflammatory cytokines (TNF-α, IL-6, IL-8), markers of vascular inflammation (E-selectin, ICAM-1, VCAM-1), and markers of endothelial cell alteration (Endoglin, Thrombomodulin), all these markers were reduced by 35 to 80% upon treatment with ANGPTL4 (data not shown).

B1: ANGPTL4: Recombinant human ANGPTL4 (Angiopoietin-like 4), full length, SEQ ID NO: 1, purchased from R&D Systems (protein, listed as Homo sapiens)
chain: MSGAPTAGAALMLCAATAVLLSAQGGPVQSKSPRFASWDEMNVLAHGLLQLGQGLREHAERTRSQLSALERRLSACGSACQGTEGSTDLPLAPESRVDPEVLHSLQTQLKAQNSRIQQLFHKVAQQQRHLEKQHLRIQHLQSQFGLLDHKHLDHEVAKPARRKRLPEMAQPVDPAHNVSRLHRLPRDCQELFQVGERQSGLFEIQPQGSPPFLVNCKMTSDGGWTVIQRRHDGSVDFNRPWEAYKAGFGDPHGEFWLGLEKVHSITGDRNSRLAVQLRDWDGNAELLQFSVHLGGEDTAYSLQLTAPVAGQLGATTVPPSGLSVPFSTWDQDHDLRRDKNCAKSLSGGWWFGTCSHSNLNGQYFRSIPQQRQKLKKGIFWKTWRGRYYPLQATTMLIQPMAAEAAS
- effect on organization of the adherens junctions formed by HDMECs [1]: no significant effect
- cell apoptosis induced by meningococcal infection [2]: inhibited cell apoptosis
- mice surviving the infection ([3]; 1 μg/mouse i.v., 2 h post-infection, all control mice died): 15%
- signs of thrombosis and vascular leakage in human dermal vessels of grafts ([3]; at the time of death, data not shown): reduced signs of thrombosis and vascular leakage
- Src kinase and VE-cadherin phosphorylation [4]: significantly reduced
